Ends that are not written are not given here. * marks the point of attachment. Biotin = O=C1N[C@H]2[C@H](CS[C@H]2CCCCC(=O)*)N1
B1: LPAP C-terminal peptide AA30L (peptide)
peptide: Biotin-AWDDSARAAGGQGLHVTAL
B2: CDW128B (IL8RB) C-terminal peptide AA29.2L (peptide)
peptide: Biotin-KDSRPSFVGSSSGHTSTTL
B3: CLASP-1 C-terminal peptide AA1L (peptide)
peptide: Biotin-ISKATPALPTVSISSSAEV
B4: CD44 (long form) C-terminal peptide AA9L (peptide)
peptide: Biotin-QFMTADETRNLQNVDMKIGV
B5: CDW128A (IL8RA) C-terminal peptide AA29.1L (peptide)
peptide: Biotin-ARHRVTSYTSSSVNVSSNL
B6: CLASP-2 C-terminal peptide AA2L (peptide)
peptide: Biotin-ISGTPTSTMVHGMTSSSSVV
B7: VCAM1 C-terminal peptide AA17L (peptide)
peptide: Biotin-ARKANMKGSYSLVEAQKSKV
B8: CD95 (Apo-1/Fas) C-terminal peptide AA13L (peptide)
peptide: Biotin-KDITSDSENSNFRNEIQSLV
B9: DNAM-1 C-terminal peptide AA22L (peptide)
peptide: Biotin-TREDIYVNYPTFSRRPKTRV
B10: KV1.3 C-terminal peptide AA33L (peptide)
peptide: Biotin-TTNNNPNSAVNIKKIFTDV
B11: CD98 (2F4) C-terminal peptide AA15L (peptide)
peptide: Biotin-ERLKLEPHEGLLLRFPYAA
B12: DOCK2 C-terminal peptide AA40L (peptide)
peptide: Biotin-LASKSAEEGKQIPDSLSTDL

Key:
[1] = molecular target: T1, GST-LIMK2 PDZ domain fusion protein (human, UniProt P53671 147-237); experiment: A/G assays
T1 construct: also called human LIM domain kinase 2; not shown: glutathione S-transferase (GST) encoded by pGEX-3X
T1 sequence: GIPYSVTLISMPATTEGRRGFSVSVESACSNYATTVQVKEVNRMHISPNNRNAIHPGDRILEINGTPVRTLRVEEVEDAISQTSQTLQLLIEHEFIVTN

[2] = molecular target: T2, GST-MPP2 PDZ domain fusion protein; experiment: A/G assays
T2 construct: also called maguk p55 subfamily member 2 (DLG2); MMP2; not shown: glutathione S-transferase (GST) encoded by pGEX-3X
T2 chain: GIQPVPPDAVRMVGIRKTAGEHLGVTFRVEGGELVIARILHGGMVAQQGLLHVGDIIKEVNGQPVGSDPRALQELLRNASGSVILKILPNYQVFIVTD

[3] = molecular target: T3, GST-NOS1 PDZ domain fusion protein (human, UniProt P29475 11-101); experiment: A/G assays
T3 construct: also called human neuronal nitric oxide synthase; not shown: glutathione S-transferase (GST) encoded by pGEX-3X

[4] = molecular target: T4, GST-KIAA0316 PDZ domain fusion protein (Homo sapiens (Human), UniProt Q14CM0 72-159); experiment: A/G assays
T4 construct: also called K316; not shown: glutathione S-transferase (GST) encoded by pGEX-3X

[5] = molecular target: T5, GST-DVL1 PDZ domain fusion protein (human); experiment: A/G assays
T5 construct: also called human dishevelled segment polarity protein homolog; not shown: glutathione S-transferase (GST) encoded by pGEX-3X
T5 chain: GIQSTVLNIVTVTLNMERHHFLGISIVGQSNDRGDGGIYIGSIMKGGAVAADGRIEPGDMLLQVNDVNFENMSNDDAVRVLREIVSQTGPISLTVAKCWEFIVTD

[6] = molecular target: T6, GST-MINT3 PDZ domain fusion protein (human); experiment: A/G assays
T6 construct: also called human MINT3; not shown: glutathione S-transferase (GST) encoded by pGEX-3X
T6 chain: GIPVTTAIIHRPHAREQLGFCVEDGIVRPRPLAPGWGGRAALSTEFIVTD

[7] = molecular target: T7, GST-TAX2 PDZ domain fusion protein (human, UniProt O14908 129-216); experiment: A/G assays
T7 construct: not shown: glutathione S-transferase (GST) encoded by pGEX-3X
T7 chain: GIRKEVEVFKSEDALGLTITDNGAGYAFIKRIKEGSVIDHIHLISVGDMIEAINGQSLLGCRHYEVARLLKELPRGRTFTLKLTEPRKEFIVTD

[8] = molecular target: T8, GST-NeDLG PDZ domains 1-2 fusion protein (Mus musculus (Mouse), UniProt P70175 147-332); experiment: A/G assays
T8 construct: also called NeDLG1; not shown: glutathione S-transferase (GST) encoded by pGEX-3X
T8 chain: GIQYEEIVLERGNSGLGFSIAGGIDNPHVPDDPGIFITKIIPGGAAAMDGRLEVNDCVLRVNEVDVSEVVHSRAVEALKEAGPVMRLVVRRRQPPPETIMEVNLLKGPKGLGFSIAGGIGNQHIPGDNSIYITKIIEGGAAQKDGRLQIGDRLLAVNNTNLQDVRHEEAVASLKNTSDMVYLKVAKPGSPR

[9] = molecular target: T9, GST-SYN1a (alpha1-syntrophin) PDZ domain fusion protein (Homo sapiens (Human), UniProt Q13424 84-179); experiment: A/G assays
T9 construct: also called SYN 1 α; not shown: glutathione S-transferase (GST) encoded by pGEX-3X
T9 sequence: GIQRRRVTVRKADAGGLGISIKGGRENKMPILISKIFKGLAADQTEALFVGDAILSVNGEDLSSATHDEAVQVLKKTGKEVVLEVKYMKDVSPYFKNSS

[10] = molecular target: T8, GST-NeDLG PDZ domains 1-2 fusion protein; experiment: A and G assays
[11] = molecular target: T10, GST-PSD95 PDZ domains 1-3 fusion protein (human, UniProt P31016 58-395 (rat entry)); experiment: A assay
T10 construct: not shown: glutathione S-transferase (GST) encoded by pGEX-3X

[12] = molecular target: T8, GST-NeDLG PDZ domains 1-2 fusion protein; experiment: G assay
[13] = molecular target: T11, GST-prIL16 PDZ domains 1-2 fusion protein (Homo sapiens (Human), UniProt Q14005 1110-1325); experiment: G assay
T11 construct: also called putative interleukin 16 precursor; not shown: glutathione S-transferase (GST) encoded by pGEX-3X
T11 sequence: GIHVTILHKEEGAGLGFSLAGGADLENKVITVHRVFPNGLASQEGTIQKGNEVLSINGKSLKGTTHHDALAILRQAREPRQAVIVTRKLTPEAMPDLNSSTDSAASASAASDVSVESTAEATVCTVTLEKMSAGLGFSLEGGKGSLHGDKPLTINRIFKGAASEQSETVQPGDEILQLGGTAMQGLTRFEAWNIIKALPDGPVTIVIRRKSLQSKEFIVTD

[14] = molecular target: T12, GST-MPP1 PDZ domain fusion protein (Homo sapiens (Human), UniProt Q00013 67-152); experiment: G assay
T12 construct: also called 55 Kd erythrocyte membrane protein; not shown: glutathione S-transferase (GST) encoded by pGEX-3X
T12 sequence: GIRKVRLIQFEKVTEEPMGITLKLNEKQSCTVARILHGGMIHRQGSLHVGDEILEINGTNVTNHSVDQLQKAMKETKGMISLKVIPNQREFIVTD

[15] = molecular target: T8, GST-NeDLG PDZ domains 1-2 fusion protein; experiment: A assay
[16] = molecular target: T13, GST-41.8 kD (hypothetical 41.8 kD protein) PDZ domain fusion protein (Mus musculus (Mouse), UniProt Q9EQZ7 682-763); experiment: A assay
T13 construct: not shown: glutathione S-transferase (GST) encoded by pGEX-3X
T13 sequence: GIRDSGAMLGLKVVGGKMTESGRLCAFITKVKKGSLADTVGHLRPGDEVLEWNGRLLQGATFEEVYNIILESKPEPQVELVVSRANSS

[17] = molecular target: T8, GST-NeDLG PDZ domains 1-2 fusion protein; experiment: G assay titration of biotinylated peptide on immobilized GST-PDZ, saturation fit (apparent affinity)
Excerpt: FIGS. 2A and 2B show the Apparent Affinity Determination for PDZ-Ligand Interactions. […] The binding to GST alone (<0.2 OD units) was subtracted from the binding to the fusion proteins to obtain the signal at each peptide concentration.

[18] = molecular target: T12, GST-MPP1 PDZ domain fusion protein; experiment: A assay
[19] = molecular target: T2, GST-MPP2 PDZ domain fusion protein; experiment: G assay
[20] = molecular target: T5, GST-DVL1 PDZ domain fusion protein; experiment: A assay
[21] = molecular target: T14, GST-TAX33 PDZ domain fusion protein (Homo sapiens (Human), UniProt O14910 103-194); experiment: A/G assays
T14 construct: not shown: glutathione S-transferase (GST) encoded by pGEX-3X
T14 sequence: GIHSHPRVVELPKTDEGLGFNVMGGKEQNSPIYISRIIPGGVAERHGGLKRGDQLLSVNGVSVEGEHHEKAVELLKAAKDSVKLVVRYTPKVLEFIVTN

[22] = molecular target: T9, GST-SYN1a (alpha1-syntrophin) PDZ …; experiment: G assay

T3 sequence (P29475 other isoform, or with tags, fused parts or gaps): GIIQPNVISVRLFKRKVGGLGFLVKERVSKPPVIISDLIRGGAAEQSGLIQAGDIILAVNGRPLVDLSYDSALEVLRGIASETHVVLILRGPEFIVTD
T4 sequence (Q14CM0 other isoform, or with tags, fused parts or gaps): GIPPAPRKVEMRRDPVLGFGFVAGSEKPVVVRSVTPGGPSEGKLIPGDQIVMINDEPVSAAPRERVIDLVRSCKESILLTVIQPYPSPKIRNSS
T10 sequence (P31016 other isoform, or with tags, fused parts or gaps): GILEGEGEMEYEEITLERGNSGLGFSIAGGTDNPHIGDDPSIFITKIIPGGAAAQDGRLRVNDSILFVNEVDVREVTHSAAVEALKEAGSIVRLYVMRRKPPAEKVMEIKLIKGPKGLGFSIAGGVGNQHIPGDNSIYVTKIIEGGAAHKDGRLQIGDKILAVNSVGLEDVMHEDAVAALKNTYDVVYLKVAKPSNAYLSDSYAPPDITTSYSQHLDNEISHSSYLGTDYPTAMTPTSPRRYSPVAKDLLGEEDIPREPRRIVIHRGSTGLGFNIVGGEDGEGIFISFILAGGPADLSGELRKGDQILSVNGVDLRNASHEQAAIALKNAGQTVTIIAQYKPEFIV

Binder	binding result [1]	binding result [2]	binding result [5]	binding result [6]	binding result [7]	binding result [9]	further results
B1	no binding	no binding	no binding	no binding	no binding	no binding	binding result [3]: no binding; binding result [4]: no binding; binding result [8]: no binding
B2	no binding	no binding	no binding	no binding	no binding	no binding	binding result [10]: binds
B3	no binding	no binding	no binding	no binding	no binding	no binding	binding result [11]: binds; binding result [12]: binds
B4	no binding	no binding	no binding	no binding	no binding	no binding	binding result [13]: binds; binding result [14]: binds; binding result [8]: no binding
B5	no binding	no binding	no binding	no binding	no binding	no binding	binding result [15]: binds
B6	no binding	no binding	no binding	no binding	no binding	no binding	binding result [16]: binds; Kd [17]: 7.5 µM
B7	no binding	no binding	no binding	no binding	no binding	no binding	binding result [18]: binds; binding result [15]: binds
B8	no binding	no binding	no binding	no binding	no binding	no binding	Kd [17]: 54 µM
B9	no binding	–	no binding	no binding	no binding	no binding	binding result [18]: binds; binding result [15]: binds; binding result [19]: binds; binding result [3]: no binding
B10	no binding	no binding	–	no binding	no binding	no binding	binding result [20]: binds; binding result [10]: binds
B11	no binding	–	no binding	no binding	no binding	no binding	binding result [19]: binds; binding result [3]: no binding; binding result [4]: no binding; binding result [8]: no binding; binding result [21]: no binding
B12	no binding	no binding	no binding	no binding	no binding	–	binding result [12]: binds; binding result [22]: binds

— patent US6942981
